Source: publication PMC5457521 (Nature Communications, 2017)

B1: anti-EDE2 mAb 747(4)A11, human IgG (antibody, V domains shown)
VH: EVQLVESGGGLVRPGGSLRLSCAASGFSYSNHWMHWVRQAPGKGLVWVSRINSDGSTRNYADFVKGRFTISRDNAENTLYLEMNSLTADDTAVYYCVRDGVRFYYDSTGYYPDSFFKYGMDVWGQGTTVTVSS
VL: QSVLTQPVSVSGSPGQSITISCTGTSSNADTYNLVSWYQQRPGKAPKLMIYEGTKRPSGVSNRFSASKSATAASLTISGLQPEDEADYYCCSYATSRTLVFGGGTKLTVV
B2: anti-EDE2 Fab A11 (Fab of human mAb 747(4)A11) (Fab, V domains shown)
VH: B1 VH
VL: B1 VL
B3: anti-EDE2 mAb 747(4)B7, human IgG (antibody, V domains shown)
VH: EVQLVESGGGLVQPGGSLKLSCAASGFTFSSHWMHWVRQAPGKGLVWVSRTNSDGSSTSYADSVKGRFMISRDNSKNTVYLHMNGLRAEDTAVYFCARDGVRYYYDSTGYYPDNFFQYGLDVWGQGTTVTVSS
VL: QSALTQPASVSGSPGQSITISCTGISSDVETYNLVSWYEQHPGKAPKLIIYEASKRPSGVSNRFSGSKSGNTASLAISGLQAEDEADYYCCSYAGGKSLVFGGGTRLTVL

Columns and labels:
[1] = molecular target: T1, DENV2 sE strain FGA02, wild type (recombinant E ectodomain) (Dengue virus 2, strain FGA-02 …, strain); test: ELISA; capture ELISA: mAb coated at 5 μg ml^−1 on MAXISORP plates; serial dilutions of Strep-tagged sE in solution; ALP-labelled Strep-Tactin; conditions: one partner purified
T1 construct: also called sE WT; DENV2 FGA02 WT

[2] = molecular target: T1, DENV2 sE strain FGA02, wild type …; test: SEC-MALS; mixture of 150 μg DENV2 FGA02 sE with 300 μg Fab, Superdex 200 10/300 GL, run in a similar manner as sE alone; conditions: both partners purified

Binder	binding result [1]	binding result [2]
B1	binds	
B2		binds
B3	binds	
